Results as given in patent publication US20070265189A1.
Read-outs that look alike come from different tables or passages of the source. No end group written: not given here.

Key:
[1] = target: human insulin receptor (HIR) (human) (UniProt P06213); test: HIR Kd; method not restated (Example 3: 125I-insulin displacement, solubilised HIR)
[2] = target: human insulin receptor (HIR) (human) (UniProt P06213); test: as above; remark: listed apart in the source
[3] = target: soluble human insulin receptor-immunoglobulin heavy chain chimera (sIR-Fc; Bass et al., 1996) (human) (UniProt P06213); test: phage ELISA
[4] = target: soluble human insulin receptor-immunoglobulin heavy chain chimera (sIR-Fc; Bass et al., 1996) (human), P06213; test: phage ELISA
[5] = target: Soluble IGF-1R (sIGF-1R), R&D Systems Cat. # 391-GR/CF, P08069; test: phage ELISA
[6] = target: T1, Insulin receptor prepared according to Bass et al., 1996 (human), P06213; test: phage ELISA: IR ratio over background divided by IGF-1R ratio over background
[7] = target: Soluble IGF-1R (R&D Systems, Cat. # 391-GR/CF), P08069
[8] = target: T1, Insulin receptor prepared according to …
[9] = target: Soluble IGF-1R (R&D Systems, Cat. # 391-GR/CF), P08069; test: phage ELISA: IGF-1R ratio over background divided by IR ratio over background
[10] = target: human insulin receptor (HIR) purified from transfected cells after solubilization with Triton X-100 (human) (UniProt P06213); test: competition with 125I-insulin for solubilised HIR, PEG precipitation; Kd calculated

B1: Fusion 437 (MBP fusion of H2C) (protein, not shown: large carriers; small tags and cut ends)
chain: NNNNLGIEGRISEFIEGRAQPAMAFHENFYDWFVRQVSAAAGAPVPYPDPLEPRAA
In the case of B1, the Kd [1] is reported as 8300 nM and the Kd [2] is reported as 83 nM.

B2: Fusion 463 (MBP fusion of H2C-3aa-H2C) (protein, not shown: large carriers; small tags and cut ends)
chain: NNNNLGIEGRISEFIEGRAQPAMAFHENFYDWFVRQVSGGSFHENFYDWFVRQVSAAAGAPVPYPDPLEPRAA
In the case of B2, the Kd [2] is reported as 960 nM.

B3: Fusion 436 (MBP fusion of H2C-9aa-H2C) (protein, not shown: large carriers; small tags and cut ends)
chain: NNNNLGIEGRISEFIEGRAQPAMAFHENFYDWFVRQVSGGSGGSGGSFHENFYDWFVRQVSAAAGAPVPYPDPLEPRAA
Binder B3 has a Kd [2] of 410 nM.

B4: Fusion 435 (MBP fusion of H2C-3aa-H2C-3aa-H2C) (protein, not shown: large carriers; small tags and cut ends)
chain: NNNNLGIEGRISEFIEGRAQPAMAFHENFYDWFVRQVSGGSFHENFYDWFVRQVSGGSFHENFYDWFVRQVSAAAGAPVPYPDPLEPRAA
B4 was tested, and the Kd [1] was 2000 nM and the Kd [2] was 20 nM.

B5: RB517 (peptide)
peptide: DYKDDDDKHLCVLEELFWGASLFGYCSGGGSGGSHLCVLEELFWGASLFGYCSGAAAGAPVPYPDPLEPRAA
With B5 the Kd [2] was 60 nM.

B6: RB521 (peptide)
peptide: MADYKDDDDKGSLDESFYDWFERQLGKKGGSGGSGSLDESFYDWFERQLGKKAAAGAPVPYPDPLEPRPG
Binder B6 has a Kd [2] of 44 nM.

B7: RB537 (peptide)
peptide: MADYKDDDDKGSLDESFYDWFERQLGKKGGSGGSWLDQEWAWVQCEVYGRGCPSAAAGAPVPYPDPLEPRPG
Binder B7 has a Kd [2] of 0.059 nM.

B8: RB538 (peptide)
peptide: MADYKDDDDKGSLDESFYDWFERQLGKKGGSGGSGGSGGSWLDQEWAWVQCEVYGRGCPSAAAGAPVPYPDPLEPRPG
Work on B8 yielded a Kd [2] of 0.017 nM.

RGAVAGFHDQFYDWFDRQVSRVHKFG [H2CA-4-H9-IGFR] showed an IR/IGF-1R comparison [3] of 0.3 and a Ratio over Background [3] of 1.9.

For YRGMLVLGRISGGAGKAASERPARIGQKVSAVNFYDWFV [A6L-0-H3-IR], the IR/IGF-1R comparison [3] was 0.1 and the Ratio over Background [3] was 2.

B9: B6Hα-2-C4-IR (peptide)
peptide: RCGRWXAEMGAGDDPFYHKLSELVCG
modifications: not fully specified; X: residue not identified in the source; cysteine pairing not given here
Binder B9 has an IR/IGF-1R comparison [4] of 0.1, a Ratio over Background [4] of 0.9 and an IGF-1R/IR comparison [5] of 11. It also gave a Ratio over Background [5] of 9.9.

B10: 20E2B-2-B11-IGFR (peptide)
peptide: VVTPVNFYRALEALVRGXRLG
modifications: not fully specified; printed as VVTPVNFYRALEALVRG.RLG; X: residue not identified in the source
B10 showed an IR/IGF-1R comparison [4] of 0.1, a Ratio over Background [4] of 1.1 and an IGF-1R/IR comparison [5] of 9.4. For the same binder, the Ratio over Background [5] was 10.6.

B11: 20E2B-3-C11-IGFR (peptide)
peptide: CMMXDGFYAGLGCLLTAGEGR
modifications: not fully specified; printed as CMM.DGFYAGLGCLLTAGEGR; X: residue not identified in the source; cysteine pairing not given here
B11 gave an IR/IGF-1R comparison [4] of 0.1, a Ratio over Background [4] of 2.1 and an IGF-1R/IR comparison [5] of 7.5. It also gave a Ratio over Background [5] of 15.4.

B12: B6L-4-A7-IR (peptide, not shown: large carriers)
peptide: DYKDAGTPAQVGXNRLWSVWPGEHWNTVDPFYNKLSELLRESGAAAAGAP
modifications: not fully specified; X: residue not identified in the source; also: phage-displayed fusion
For B12, the Comparison IR/IGF-1R [6] was 0.6, the Ratio over Background, IGF-1R (ratio over background) [7] was 3.4 and the Ratio over Background, IR (ratio over background) [8] was 1.9. The Comparison IGF-1R/IR [9] was 1.8.

For DYKDVDTPAQVGWNRLWSVGPGEHWYTDDPFYHXLSELLRESGAAAAGAP (peptide, not shown: large carriers, X: residue not identified in the source; also: phage-displayed fusion) [B6L-3-G6-IR], the Comparison IR/IGF-1R [6] was 0.7, the Ratio over Background, IGF-1R (ratio over background) [7] was 2.5 and the Ratio over Background, IR (ratio over background) [8] was 1.8. It also gave a Comparison IGF-1R/IR [9] of 1.4.

GSLDESFYDWFERQLG [S386] gave a Kd [10] of 320 nM.

B13: Fusion 464 (MBP fusion of LF-H2C) (protein, not shown: large carriers; small tags and cut ends)
chain: NNNNLGIEGRISEFIEGRDYKDDDDKFHENFYDWFVRQVSAAGAPVPYPDPLEPRAA
With B13 the Kd [1] was 39 nM.
